Experimental data from patent US20120324602A1.

Legend:
Test in all cases: TAP-MS, N-terminal GS tag
[1] = biological target: chaperonin, similar to At3g18190 (AT3G03960) (Arabidopsis thaliana)
[2] = biological target: chaperonin (AT5G26360) (Arabidopsis thaliana)
[3] = biological target: chaperonin (AT3G02530) (Arabidopsis thaliana)
[4] = biological target: unknown, similar to At5g55210 (AT4G22320) (Arabidopsis thaliana)
[5] = biological target: TCP-1 (Arabidopsis thaliana T-complex protein 1 alpha subunit) (Arabidopsis thaliana)
[6] = biological target: protein coding (AT5G14240) (Arabidopsis thaliana)
[7] = biological target: chaperonin, similar to At3g03960 (AT3G18190) (Arabidopsis thaliana)
[8] = biological target: T1, actin-related protein 4 (ARP4) (Arabidopsis thaliana)
T1 sequence (Q84M92 1-441, looked up): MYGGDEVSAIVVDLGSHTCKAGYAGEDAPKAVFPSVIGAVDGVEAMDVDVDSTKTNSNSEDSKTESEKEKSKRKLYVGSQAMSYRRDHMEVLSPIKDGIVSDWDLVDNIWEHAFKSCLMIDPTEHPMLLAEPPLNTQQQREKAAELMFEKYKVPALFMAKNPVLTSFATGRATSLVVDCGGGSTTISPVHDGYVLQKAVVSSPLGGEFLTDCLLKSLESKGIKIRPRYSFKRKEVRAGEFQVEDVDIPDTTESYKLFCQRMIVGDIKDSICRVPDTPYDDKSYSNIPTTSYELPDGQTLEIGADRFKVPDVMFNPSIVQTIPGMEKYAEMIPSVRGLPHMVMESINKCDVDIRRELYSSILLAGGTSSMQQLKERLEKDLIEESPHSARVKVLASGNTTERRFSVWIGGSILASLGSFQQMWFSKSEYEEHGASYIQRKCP

TCP-1 (Arabidopsis thaliana T-complex protein 1 alpha subunit) (Arabidopsis thaliana), sequence (P28769 2-545, one chain of several): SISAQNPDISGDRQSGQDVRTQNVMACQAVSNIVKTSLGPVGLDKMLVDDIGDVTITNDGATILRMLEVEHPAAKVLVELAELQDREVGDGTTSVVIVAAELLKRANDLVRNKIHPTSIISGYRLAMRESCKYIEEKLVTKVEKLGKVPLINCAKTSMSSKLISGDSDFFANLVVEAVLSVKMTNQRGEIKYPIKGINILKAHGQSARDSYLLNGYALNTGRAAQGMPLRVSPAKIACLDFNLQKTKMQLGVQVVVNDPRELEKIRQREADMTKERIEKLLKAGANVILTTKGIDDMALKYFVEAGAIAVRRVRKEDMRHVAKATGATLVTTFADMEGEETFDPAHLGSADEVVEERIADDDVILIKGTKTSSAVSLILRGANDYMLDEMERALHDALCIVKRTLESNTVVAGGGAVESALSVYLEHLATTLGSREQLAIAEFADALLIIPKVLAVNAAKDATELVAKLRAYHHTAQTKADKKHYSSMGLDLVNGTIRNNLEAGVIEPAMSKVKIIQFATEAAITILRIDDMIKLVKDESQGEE

B1: GS-ARP7 (protein, UniProt Q8L4Y5 1-363, looked up)
Actin-related protein 7: MEALVVDAGSKFLKAGAAIPDQSPAMIIPSQMKRMVDDGSSSADNPTTVFEDVTLDPIERGLIRDWDAMEDLLRYVVYTGLGWEEGNEGNILFTDPLCTPKAIREQLVQLMFETFNVSGFYASEQAVLSLYAVGRISGCTVDIGHGKIDIAPVLEGAVQHIASKRFELGGTELTKLFAQELGKTNPSMNLSMSDVEKLKEQYANCAEDEIAYKKTQNCEIEQHTLPDGQVISIGRERYSVGEALFQPSILGLEEHGIVEQLVRIISTVSSENHRQLLENTVLCGGTTSMTGFESRFQKEANLCSSAIRPTLVKPPEYMPENLGMYSAWVGGAILAKVVFPQNQHVTKADYDETGPSVVHRKCF
modifications: N-terminal GS tag
In the case of B1, the N-GS (times co-purified) [1] is reported as 2, the N-GS (times co-purified) [2] is reported as 2 and the N-GS (times co-purified) [3] is reported as 2. It also gave a N-GS (times co-purified) [4] of 2, a N-GS (times co-purified) [5] of 2 and a N-GS (times co-purified) [6] of 2. The N-GS (times co-purified) [7] was 2 and the N-GS (times co-purified) [8] was 1.
